Data taken from publication PMC11997328, “Structural and functional characterization of the extended-diKH domain from the antiviral endoribonuclease KHNYN”.

Legend:
KHNYN ex-diKH [1] = molecular target: T1, KHNYN ex-diKH (human, UniProt O15037 8-200); assay: EMSA; 20 uM protein, 0.2 uM RNA; BLI: 20 mM Tris pH 8.0, 50 mM NaCl, 0.5 mM TCEP, 0.01% Tween 20, 8 U/ml RNasin Plus, 25 °C; EMSA: 20 mM Tris pH 8.0, 50 mM NaCl, 0.5 mM TCEP, 5% glycerol, room; conditions: protein: recombinant; tags: N-terminal StrepII tag removed by HRV 3C protease; label: 5'-FAM
T1 sequence (O15037 8-200): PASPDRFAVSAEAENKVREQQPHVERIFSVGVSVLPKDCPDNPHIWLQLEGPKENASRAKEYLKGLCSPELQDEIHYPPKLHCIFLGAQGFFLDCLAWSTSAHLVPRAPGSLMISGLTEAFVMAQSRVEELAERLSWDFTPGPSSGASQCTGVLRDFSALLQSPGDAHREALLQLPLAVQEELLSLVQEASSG

ZAP RBD [2] = molecular target: T2, ZAP RBD (human, UniProt Q7Z2W4 1-227); assay: EMSA; 2 uM protein, 0.2 uM RNA; BLI: 20 mM Tris pH 8.0, 50 mM NaCl, 0.5 mM TCEP, 0.01% Tween 20, 8 U/ml RNasin Plus, 25 °C; EMSA: 20 mM Tris pH 8.0, 50 mM NaCl, 0.5 mM TCEP, 5% glycerol, room; conditions: protein: recombinant; tags: N-terminal StrepII tag removed by HRV 3C protease; label: 5'-FAM
T2 sequence (Q7Z2W4 1-227): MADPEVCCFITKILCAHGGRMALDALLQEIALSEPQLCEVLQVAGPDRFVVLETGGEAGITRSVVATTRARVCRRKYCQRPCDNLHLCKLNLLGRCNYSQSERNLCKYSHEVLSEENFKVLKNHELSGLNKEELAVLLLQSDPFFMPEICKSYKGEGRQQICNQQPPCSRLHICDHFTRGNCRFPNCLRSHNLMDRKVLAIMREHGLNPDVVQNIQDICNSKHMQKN

IMP1(KH1-KH2) = IMP1(KH1-KH2) (UniProt Q9NZI8 194-369); assay: BLI; low uM affinity; value not in material; BLI: 20 mM Tris pH 8.0, 50 mM NaCl, 0.5 mM TCEP, 0.01% Tween 20, 8 U/ml RNasin Plus, 25 °C; EMSA: 20 mM Tris pH 8.0, 50 mM NaCl, 0.5 mM TCEP, 5% glycerol, room; conditions: protein: recombinant; label: 5'-biotin
IMP1(KH1-KH2), sequence (Q9NZI8 194-369): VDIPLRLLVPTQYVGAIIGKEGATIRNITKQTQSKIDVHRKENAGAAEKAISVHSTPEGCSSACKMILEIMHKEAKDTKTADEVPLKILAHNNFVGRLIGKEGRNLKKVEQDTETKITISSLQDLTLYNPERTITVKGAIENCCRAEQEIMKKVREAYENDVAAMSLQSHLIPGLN

KHNYN ex-diKH [3] = molecular target: T1, KHNYN ex-diKH; assay: BLI; up to 100 uM protein; BLI: 20 mM Tris pH 8.0, 50 mM NaCl, 0.5 mM TCEP, 0.01% Tween 20, 8 U/ml RNasin Plus, 25 °C; EMSA: 20 mM Tris pH 8.0, 50 mM NaCl, 0.5 mM TCEP, 5% glycerol, room; conditions: protein: recombinant; tags: N-terminal StrepII tag removed by HRV 3C protease; label: 5'-biotin
ZAP RBD [4] = molecular target: T2, ZAP RBD; assay: BLI; BLI: 20 mM Tris pH 8.0, 50 mM NaCl, 0.5 mM TCEP, 0.01% Tween 20, 8 U/ml RNasin Plus, 25 °C; EMSA: 20 mM Tris pH 8.0, 50 mM NaCl, 0.5 mM TCEP, 5% glycerol, room; conditions: protein: recombinant; tags: N-terminal StrepII tag removed by HRV 3C protease; label: 5'-biotin

B1: CpG-depleted 33mer (ssRNA)
RNA: GCAACCACCACUCUAUUUUGUGCAUCAGAUGCU
Question: Does B1 bind (KHNYN ex-diKH [1])?
Answer: Result: no binding

B2: CpG-rich 33mer (ssRNA)
RNA: GCAACGACGACGCUAUUUUGCGCAUCAGACGCG
Question: Does B2 bind (KHNYN ex-diKH [1])?
Answer: Result: no binding

Question: Does B2 bind (ZAP RBD [2])?
Answer: Result: binds

B3: A-rich 33mer (ssRNA)
RNA: AUAACAAAUACACUAAAAUACAAAUCAGAAAAU
Question: Does B3 bind (KHNYN ex-diKH [1])?
Answer: Result: no binding

B4: AU-rich 33mer (ssRNA)
RNA: GUAACUAAUACUCUAUUUUGUUAAUCAGAUAAU
Question: Does B4 bind (KHNYN ex-diKH [1])?
Answer: Result: no binding

B5: CUG RNA (Bi-UUCUGUU) (ssRNA)
RNA: UUCUGUU
Question: Does B5 bind (IMP1(KH1-KH2))?
Answer: Result: binds

Question: Does B5 bind (KHNYN ex-diKH [3])?
Answer: Result: no binding

B6: CpG RNA (Bi-UAAUCGU) (ssRNA)
RNA: UAAUCGU
Question: Which results are given for B6?
Answer: binding result (KHNYN ex-diKH [3]): no binding; Kd (ZAP RBD [4]): 30 nM

B7: C-rich 33mer (ssRNA)
RNA: CUCCUCCCUACACUCCCCUCUCCCGCCGCCCCU
Question: Does B7 bind (KHNYN ex-diKH [1])?
Answer: Result: no binding

B8: non-CpG RNA (Bi-UUCAGGU) (ssRNA)
RNA: UUCAGGU
Question: Does B8 bind (KHNYN ex-diKH [3])?
Answer: Result: no binding

Question: What about the Kd (ZAP RBD [4]) of the same binder?
Answer: The Kd was 740 nM.

B9: U-rich 33mer (ssRNA)
RNA: GUUUCUUUUACUCUUUGUUACUUUUCAGUUAAU
Question: Does B9 bind (KHNYN ex-diKH [1])?
Answer: Result: no binding
